Measured values as given in US20260049105A1, “SELECTIVE MC4R LIGAND FOR TREATING OBESITY AND COGNITIVE LOSS” (ARIZONA BOARD OF REGENTS ON BEHALF OF THE UNIVERSITY OF …, priority 2022, published 2026).
pIC50: −log10 of the molar value. Read-outs that look alike come from different tables or passages of the source.

What was measured:
[1] = target: human melanocortin 4 receptor (human) (UniProt P32245); assay: competition with 125I-NDP-α-MSH on whole HEK293 cells expressing hMC4R
[2] = target: human melanocortin 5 receptor (human) (UniProt P33032); assay: competition with 125I-NDP-α-MSH, cells expressing hMC5R
Chain of human melanocortin 5 receptor (human) (P33032 whole entry): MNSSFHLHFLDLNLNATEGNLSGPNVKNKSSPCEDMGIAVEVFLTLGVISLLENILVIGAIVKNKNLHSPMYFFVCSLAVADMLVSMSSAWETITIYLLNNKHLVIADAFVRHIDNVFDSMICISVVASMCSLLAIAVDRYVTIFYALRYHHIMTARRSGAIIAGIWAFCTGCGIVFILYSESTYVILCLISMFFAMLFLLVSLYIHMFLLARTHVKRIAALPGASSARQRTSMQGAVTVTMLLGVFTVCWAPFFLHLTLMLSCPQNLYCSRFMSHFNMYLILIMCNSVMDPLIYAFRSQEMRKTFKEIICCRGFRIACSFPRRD

[3] = target: human melanocortin 3 receptor (human) (UniProt P41968); assay: competition with 125I-NDP-α-MSH, cells expressing hMC3R
Chain of human melanocortin 3 receptor (human) (P41968 whole entry): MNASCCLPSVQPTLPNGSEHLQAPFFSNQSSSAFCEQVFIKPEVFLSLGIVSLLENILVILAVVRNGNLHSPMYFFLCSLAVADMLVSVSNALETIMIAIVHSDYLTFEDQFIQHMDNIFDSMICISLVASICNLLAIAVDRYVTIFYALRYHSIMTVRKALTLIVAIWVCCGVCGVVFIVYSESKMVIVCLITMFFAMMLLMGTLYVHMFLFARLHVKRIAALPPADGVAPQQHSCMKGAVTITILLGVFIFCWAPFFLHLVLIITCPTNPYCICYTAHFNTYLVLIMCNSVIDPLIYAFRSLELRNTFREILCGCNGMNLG

[4] = target: human melanocortin 1 receptor (human) (UniProt Q01726); assay: competition with 125I-NDP-α-MSH, cells expressing hMC1R
Chain of human melanocortin 1 receptor (human) (Q01726 whole entry): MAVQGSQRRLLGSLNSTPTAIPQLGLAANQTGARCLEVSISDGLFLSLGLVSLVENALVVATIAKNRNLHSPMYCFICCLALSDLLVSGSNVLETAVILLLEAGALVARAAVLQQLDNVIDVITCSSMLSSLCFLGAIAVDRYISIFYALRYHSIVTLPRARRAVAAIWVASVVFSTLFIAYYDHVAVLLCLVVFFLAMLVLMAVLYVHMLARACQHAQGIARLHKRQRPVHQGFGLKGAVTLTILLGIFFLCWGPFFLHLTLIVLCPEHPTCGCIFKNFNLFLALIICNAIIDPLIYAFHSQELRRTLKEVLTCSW

[5] = target: human melanocortin 1 receptor (human) (UniProt Q01726); assay: cell-based or functional assay
[6] = target: human melanocortin 3 receptor (human) (UniProt P41968); assay: cell-based or functional assay
[7] = target: human melanocortin 5 receptor (human) (UniProt P33032); assay: cell-based or functional assay
[8] = target: human melanocortin 4 receptor (human) (UniProt P32245); assay: cell-based or functional assay
[9] = target: human melanocortin 4 receptor (human) (UniProt P32245); assay: competition with 125I-NDP-α-MSH, ratio of IC50 values
[10] = target: human melanocortin 4 receptor (human) (UniProt P32245); assay: plasmon waveguide resonance, hMC4R membranes
[11] = target: human melanocortin 4 receptor (human) (UniProt P32245); assay: competition with 125I-NDP-α-MSH on whole HEK293 cells expressing hMC4R; remark: listed apart in the source

Chain of human melanocortin 4 receptor (human) (P32245 whole entry): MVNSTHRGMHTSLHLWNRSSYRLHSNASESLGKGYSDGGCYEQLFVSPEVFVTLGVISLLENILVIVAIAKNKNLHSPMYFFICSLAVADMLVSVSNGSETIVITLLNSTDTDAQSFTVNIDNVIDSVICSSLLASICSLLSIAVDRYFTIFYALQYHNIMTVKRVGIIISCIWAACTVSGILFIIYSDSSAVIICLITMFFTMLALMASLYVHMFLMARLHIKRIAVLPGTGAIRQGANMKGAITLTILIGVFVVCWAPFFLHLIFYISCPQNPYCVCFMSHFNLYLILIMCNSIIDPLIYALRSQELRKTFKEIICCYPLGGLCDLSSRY

| Substance | BE% (percent [125I]NDP-α-MSH displacement at 10 µM) [1] [%] | pIC50 [1] | BE % (percent NDP-α-MSH displacement at 10 µM) [2] [%] | BE % (percent NDP-α-MSH displacement at 10 µM) [3] [%] | pIC50 [3] | BE % (percent NDP-α-MSH displacement at 10 µM) [4] [%] | pIC50 [4] | Act % [5] [%] | EC50 (nM), cAMP accumulation [5] [nM] | Act % [6] [%] | EC50 (nM), cAMP accumulation [6] [nM] | Act % [7] [%] | EC50 (nM), cAMP accumulation [7] [nM] | Act % [8] [%] | EC50 (nM), cAMP accumulation [8] [nM] | pIC50 [2] | further results |
| --- | --- | --- | --- | --- | --- | --- | --- | --- | --- | --- | --- | --- | --- | --- | --- | --- | --- |
| Ac-Arg-cyclo[Asp-Pip-D-Phe(4-Cl)-Arg-βTrp-Lys]-NH2 (peptide) | 100 | 8.00 | 0 | 70 | 7.43 | 100 | 9.05 | 67 | 99 | 24 | > 1000 | 21 | > 1000 | 57 | 240 | – | – |
| Ac-Arg-cyclo[Asp-Pip-D-Phe(4-Cl)-βArg-Trp-Lys]-NH2 (peptide) | 100 | 8.10 | 0 | 100 | 6.97 | 100 | 8.30 | 89 | 130 | 46 | 360 | 38 | > 1000 | 66 | 110 | – | – |
| Ac-Arg-cyclo[Asp-Pip-D-Phe(4-Cl)-βArg-βTrp-Lys]-NH2 (peptide) | 100 | 9.40 | 75 | 10 | – | 100 | 7.57 | 90 | 240 | 63 | > 1000 | 76 | 295 | 87 | 4 | 7.15 | fold higher binding affinity to hMC4R than hMC1R [9]: 68 fold; fold higher binding affinity to hMC4R than hMC3R [9]: > 1000 fold; fold higher binding affinity to hMC4R than hMC5R [9]: > 1000 fold; EC50 (cAMP) [8]: 4.2 nM; PWR resonance position, p-polarization (hMC4R sole 26.44) [10]: 26.9 degrees |
| Ac-Arg-cyclo[Asp-Pip-D-Phe(4-F)-Arg-βTrp-Lys]-NH2 (peptide) | 9 | – | 100 | 100 | 6.93 | 100 | 9.70 | 90 | 64 | 76 | 450 | 72 | 530 | 46 | 630 | 7.33 | – |
| Ac-Arg-cyclo[Asp-Pip-D-Phe(4-F)-βArg-βTrp-Lys]-NH2 (peptide) | 59 | 6.61 | 90 | 39 | 6.40 | 0 | – | 61 | > 1000 | 49 | > 1000 | 51 | > 1000 | 120 | > 1000 | 7.23 | – |
| Ac-Arg-cyclo[Asp-Pip-D-Phe-Arg-βTrp-Lys]-NH2 (peptide) | 0 | – | 66 | 60 | 6.83 | 100 | 8.52 | 88 | 120 | 88 | 680 | 95 | 580 | 63 | > 1000 | 6.46 | – |
| Ac-Arg-cyclo[Asp-Pip-D-Phe-βArg-Trp-Lys]-NH2 (peptide) | 100 | 9.40 | 0 | 24 | 6.22 | 100 | 10.00 | 120 | 220 | 89 | > 1000 | 90 | > 1000 | 67 | 47 | – | – |
| Ac-Arg-cyclo[Asp-Pip-D-Phe-βArg-βTrp-Lys]-NH2 (peptide) | 100 | 10.00 | 46 | 100 | 8.15 | 30 | 6.57 | 82 | 190 | 87 | 120 | 82 | 290 | 84 | 16 | 6.22 | pIC50 [11]: 9.00 |
| Melanotan II, Ac-Nle-c[Asp-His-DPhe-Arg-Trp-Lys]-NH2 (peptide) | 100 | – | 100 | 100 | 8.05 | 100 | 8.15 | 100 | 32 | 100 | 3 | 100 | 2 | 100 | 10 | 8.22 | – |
| RM493 (peptide) | – | – | – | – | – | – | – | – | – | – | – | – | – | – | – | – | PWR left shift against hMC4R sole, p-polarization [10]: 0.25 degrees; PWR resonance position, s-polarization (sole MC4R 33.29) [10]: 33 degrees |
